Measurements: the supplement of paper PMC7877785
± gives the uncertainty stated by the source.

Assay: self-splicing fitness, log relative to wild type (ln ratio); higher = more splicing; Tetrahymena group I intron in knt gene, E. coli kanamycin selection, DiMSum; sequences stand for … in CUCUCU…GGAGGGAAAAGUUAUCAGGCAUGCACCUGGUAGCUAGUCUUUAAACCAAUAGAUUGCAUCGGUUUAAAAGGCAAGACCGUCAAAUUGCGGGAAAGGGGUCAACAGCCGUUCAGUACCAAGUCUCAGGGGAAACUUUGAGAUGGCCUUGCAAAGGGUAUGGUAAUAAGCUGACGGACAUGGUCCUAACCACGCAGCCAAGUCCUAAGUCAACAGAUCUUCUGUUGAUAUGGAUGCAGUUCACAGACUAAAUGUCGGUCGGGGAAGAUGUAUUCUUCUCAUAAGAUAUAGUCGGACCUCUCCUUAAUGGGAGCUAGCGGAUGAAGUGAUGCAACACUGGAGCCGCUGGGAACUAAUUUGUAUGCGAAAGUAUAUUGAUUAGUUUUGGAGUACUCGUGGUCG
In short: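 Six replicate transformations of E. coli BL21(DE3) with a pET-22b(+) library were grown overnight at 37°C or 30°C. The library randomised all eight P1ex-region intron nucleotides, the intron lying in the knt kanamycin-resistance gene, and plates were LB agar with or without 25 μg/mL kanamycin plus 100 μg/mL carbenicillin, 50 μM IPTG and 0.2% rhamnose. Pooled colonies were amplicon-sequenced on an Illumina HiSeq 2500, and fitness is the DiMSum error-weighted combination of wild-type-normalised replicate fold changes, kanamycin versus none.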

Row | Sequence | self-splicing fitness (ln) (30 °C) | self-splicing fitness (ln) (37 °C)
1 | AGCUAGCAAUAUUACGCCUA | -0.93 ± 0.14 | -0.324 ± 0.13
2 | GACUAGCAAUAUUACGAGGG | -3.34 ± 0.18 | -2.65 ± 0.2
3 | AGUGAGCAAUAUUACGCGGU | -3.93 ± 0.25 | -3.01 ± 0.23
4 | AUUCAGCAAUAUUACGCAUG | -1.3 ± 0.082 | -0.553 ± 0.11
5 | GCCGAGCAAUAUUACGUAGC | -2.02 ± 0.12 | -1.84 ± 0.14
6 | GCUCAGCAAUAUUACGACGG | -2.33 ± 0.18 | -1.3 ± 0.16
7 | AGACAGCAAUAUUACGUGAA | -2.03 ± 0.14 | -0.982 ± 0.15
8 | CAGAAGCAAUAUUACGAUGU | -3.37 ± 0.23 | -1.97 ± 0.2
9 | UAAAAGCAAUAUUACGGACA | -0.712 ± 0.082 | 0.302 ± 0.11
10 | AUGUAGCAAUAUUACGCCCG | -0.83 ± 0.22 | -0.891 ± 0.33
11 | AAGAAGCAAUAUUACGAGGU | -3.38 ± 0.33 | -2.42 ± 0.42
12 | GUCCAGCAAUAUUACGUGCA | -1.55 ± 0.09 | -0.54 ± 0.1
13 | UGAAAGCAAUAUUACGAAUC | -3.58 ± 0.21 | -2.53 ± 0.21
14 | AUAAAGCAAUAUUACGAAAU | -0.905 ± 0.067 | -0.451 ± 0.098
15 | GAGAAGCAAUAUUACGGACA | -0.633 ± 0.11 | -1.02 ± 0.14
16 | CCAGAGCAAUAUUACGGGCU | -3.24 ± 0.3 | 
17 | UUAAAGCAAUAUUACGGACG | 0.179 ± 0.079 | 0.835 ± 0.14
18 | GACGAGCAAUAUUACGUAUA | -3.23 ± 0.29 | -0.524 ± 0.2
19 | GAGAAGCAAUAUUACGGGUC | -3.08 ± 0.15 | -2.24 ± 0.16
20 | ACGCAGCAAUAUUACGUGAG | -1.19 ± 0.056 | -0.552 ± 0.07
21 | UCUAAGCAAUAUUACGAUGC | -3.03 ± 0.18 | -2.28 ± 0.21
22 | UUGAAGCAAUAUUACGAACC | -1.68 ± 0.24 | -1.77 ± 0.44
23 | UAUAAGCAAUAUUACGGAGA | -3.11 ± 0.36 | -2.33 ± 0.46
24 | UCGCAGCAAUAUUACGGGCU | -3.71 ± 0.17 | -2.63 ± 0.16
25 | UCUAAGCAAUAUUACGGGCU | -4.19 ± 0.4 | -1.84 ± 0.3

Row | Sequence | self-splicing fitness (ln) (30 °C) | self-splicing fitness (ln) (37 °C)
26 | AUCUAGCAAUAUUACGUCGU | -0.83 ± 0.1 | -1.21 ± 0.11
27 | UUUUAGCAAUAUUACGCGGC |  | -2.34 ± 0.39
28 | GUUCAGCAAUAUUACGAAUU | -1.52 ± 0.14 | -1.14 ± 0.14
29 | UCCAAGCAAUAUUACGGUAG | -4.7 ± 0.41 | -2.21 ± 0.16
30 | GAGAAGCAAUAUUACGGGAU | -3.32 ± 0.16 | -2.58 ± 0.2
31 | CACGAGCAAUAUUACGGUUC |  | -1.98 ± 0.34
32 | GAGCAGCAAUAUUACGCAAA | -1.4 ± 0.2 | -0.683 ± 0.14
33 | GUCGAGCAAUAUUACGCAUG | -3.47 ± 0.25 | -2.43 ± 0.22
34 | CCACAGCAAUAUUACGCUUC | -3.25 ± 0.47 | 
35 | GGCUAGCAAUAUUACGUCAC | -2.28 ± 0.16 | -1.01 ± 0.17
36 | AGUAAGCAAUAUUACGAAUU | -2.92 ± 0.42 | 
37 | CCACAGCAAUAUUACGGUGG | -4.51 ± 0.17 | -2.28 ± 0.11
38 | AGUGAGCAAUAUUACGACGC | -1.01 ± 0.2 | -0.737 ± 0.29
39 | UGCAAGCAAUAUUACGGACC | -0.803 ± 0.088 | -1.12 ± 0.16
40 | CUGGAGCAAUAUUACGAAAG | -3.51 ± 0.4 | 
41 | CGGUAGCAAUAUUACGUCAG | -0.671 ± 0.15 | -1.09 ± 0.17
42 | CGAGAGCAAUAUUACGGGUC |  | -0.826 ± 0.23
43 | CUGUAGCAAUAUUACGUUCG | -0.00257 ± 0.13 | 0.798 ± 0.14
44 | AGGUAGCAAUAUUACGAGAC | -3.88 ± 0.039 | -2.69 ± 0.044
45 | CCUUAGCAAUAUUACGACUU | -3.8 ± 0.35 | -2.73 ± 0.32
46 | CUCAAGCAAUAUUACGCAUU | -3.4 ± 0.15 | -2.7 ± 0.19
47 | CUAAAGCAAUAUUACGUUUG | -1.47 ± 0.075 | -0.672 ± 0.092
48 | CGCUAGCAAUAUUACGACAG | -0.148 ± 0.059 | 0.297 ± 0.076
49 | AUUAAGCAAUAUUACGAACU | -0.318 ± 0.12 | 0.315 ± 0.16
50 | GCAUAGCAAUAUUACGGAAG | -3.8 ± 0.34 | -2.09 ± 0.37
